Target: T1, HLA-DR DRB1*0101 (human)
T1 chain 1: not shown
T1 chain 2: not shown
Assay: radioligand inhibition, purified HLA-DR
Settings: remark: other sources report otherwise

Binder	IC50 [µM]
EGPLPAARPAGATLE [Peptide 9019.0101]	17.3
NPQLCYQDTILWKDI [Her2/neu.158]	3.65
PEYVNQPDVRPQPPS [Peptide 9019.0100]	6.17
VCGIQNSVSANRSDP [CEA.570 peptide 9012.0135]	0.044
SPGLSAGATVGIMIG [CEA.680 peptide 9019.0144]	3.51
DANLLNDRVLRAMLK [Cyclin D1.19 peptide 9019.0146]	1.46
KELAVFREKVTEQHR [Peptide 9019.0186]	2.04
INGIPQQHTQVLFIA [CEA.629 peptide 9019.0139]	0.682
AEVLFRCPPCTPERL [Peptide 9019.0178]	1.28
PERLAACGPPPVAPP [Peptide 9019.0179]	0.028
TTPVTGASPGGLREL [Her2/neu.126]	0.992
QYSWRINGIPQQHTQ [CEA.624 peptide 9019.0138]	0.472
TMNMLGGGGSAGRKP [Peptide 9019.0184]	1.02
GARMPCAELVREPGC [Peptide 9019.0181]	0.164
GYVIGTQQATPGPAY [CEA.81 peptide 9019.0110]	0.021
GVTVWELMTFGAKPY [Peptide 9019.0090]	0.04
SSYLSGANLNLSCHS [CEA.603 peptide 9012.0137]	0.04
GCQVVQGNLELTYLP [Her/neu.52]	2.6
AKGLQSLPTHDPSPL [Peptide 9019.0098]	0.149
VAAVQGLNLRSPNNF [Cyclin D1.209]	0.044
LAALCRWGLLLALLP [Her/neu.3]	2.04
DNSIRPEELLQMELL [Cyclin D1.129]	4.55
GPAYSGREIIYPNAS [CEA.92 peptide 9019.0111]	9.44
TVGIMIGVLVGVALI [CEA.688 peptide 9019.05]	0.384
IEALLESSLRQAQQN [Cyclin D1.251]	2.61
ERGPLEHLYSLHIPN [Peptide 9019.0190]	0.0077
APTISPLNTSYRSGE [CEA.239 peptide 9919.0121]	2.43
MRKIVATWMLEVCEE [Cyclin D1.56]	0.764

Target: T2, HLA-DR DRB1*0401 (human)
T2 chain 1: not shown
T2 chain 2: not shown
Assay: radioligand inhibition, purified HLA-DR
Settings: remark: other sources report otherwise

Binder	IC50 [µM]
SPGLSAGATVGIMIG [CEA.680 peptide 9019.0144]	4.19
SDSVILNVLYGPDAP [CEA.123 peptide 9019.0119 (position 226)]	0.255
INGIPQQHTQVLFIA [CEA.629 peptide 9019.0139]	0.181
PERLAACGPPPVAPP [Peptide 9019.0179]	5.54
QYSWRINGIPQQHTQ [CEA.624 peptide 9019.0138]	0.043
TMNMLGGGGSAGRKP [Peptide 9019.0184]	0.791
GYVIGTQQATPGPAY [CEA.81 peptide 9019.0110]	0.031
EPKKLRPPPARTPCQ [Peptide 9019.0188]	0.806
NDRVLRAMLKAEETC [Cyclin D1.24 peptide 9019.0147]	1.96
SSYLSGANLNLSCHS [CEA.603 peptide 9012.0137]	0.58
GCQVVQGNLELTYLP [Her/neu.52]	2.74
ICTIDVYMIMVKCWM [Peptide 1622.04]	0.717
LAALCRWGLLLALLP [Her/neu.3]	5.39
DNSIRPEELLQMELL [Cyclin D1.129]	4.68
GPAYSGREIIYPNAS [CEA.92 peptide 9019.0111]	13
IEALLESSLRQAQQN [Cyclin D1.251]	0.018
RHLYQGCQVVQGNLE [Her/neu.47]	0.422
ICELHCPALVTYNTD [Her2/neu.263]	0.754
APTISPLNTSYRSGE [CEA.239 peptide 9919.0121]	0.295
MRKIVATWMLEVCEE [Cyclin D1.56]	7.95

Target: T3, HLA-DR DRB1*0404 (human)
T3 chain 1: not shown
T3 chain 2: not shown
Assay: radioligand inhibition, purified HLA-DR
Settings: remark: other sources report otherwise

Binder	IC50 [µM]
VCGIQNSVSANRSDP [CEA.570 peptide 9012.0135]	0.029
KELAVFREKVTEQHR [Peptide 9019.0186]	0.026
TTPVTGASPGGLREL [Her2/neu.126]	0.675
GARMPCAELVREPGC [Peptide 9019.0181]	13.1
GYVIGTQQATPGPAY [CEA.81 peptide 9019.0110]	0.034
GVTVWELMTFGAKPY [Peptide 9019.0090]	0.0041
DNSIRPEELLQMELL [Cyclin D1.129]	2.8
FYTLHVIKSDLVNEE [CEA.119 peptide 9019.0114]	0.169
ERGPLEHLYSLHIPN [Peptide 9019.0190]	0.029
APTISPLNTSYRSGE [CEA.239 peptide 9919.0121]	0.04

Target: T4, HLA-DR DRB1*0405 (human)
T4 chain 1: not shown
T4 chain 2: not shown
Assay: radioligand inhibition, purified HLA-DR
Settings: remark: other sources report otherwise

Binder	IC50 [µM]
VCGIQNSVSANRSDP [CEA.570 peptide 9012.0135]	1.55
INGIPQQHTQVLFIA [CEA.629 peptide 9019.0139]	0.942
TTPVTGASPGGLREL [Her2/neu.126]	13.2
QYSWRINGIPQQHTQ [CEA.624 peptide 9019.0138]	0.311
GVTVWELMTFGAKPY [Peptide 9019.0090]	2.11
SSYLSGANLNLSCHS [CEA.603 peptide 9012.0137]	7.82
ICTIDVYMIMVKCWM [Peptide 1622.04]	0.955
AKGLQSLPTHDPSPL [Peptide 9019.0098]	3.86
DNSIRPEELLQMELL [Cyclin D1.129]	16.5
FYTLHVIKSDLVNEE [CEA.119 peptide 9019.0114]	0.041
ERGPLEHLYSLHIPN [Peptide 9019.0190]	0.11
APTISPLNTSYRSGE [CEA.239 peptide 9919.0121]	5.99

Target: T5, HLA-DR DRB1*0701 (human)
T5 chain 1: not shown
T5 chain 2: not shown
Assay: radioligand inhibition, purified HLA-DR
Settings: remark: other sources report otherwise

Binder	IC50 [µM]
EGPLPAARPAGATLE [Peptide 9019.0101]	7.46
SPGLSAGATVGIMIG [CEA.680 peptide 9019.0144]	0.092
SDSVILNVLYGPDAP [CEA.123 peptide 9019.0119 (position 226)]	5.24
INGIPQQHTQVLFIA [CEA.629 peptide 9019.0139]	0.031
AEVLFRCPPCTPERL [Peptide 9019.0178]	16
TMNMLGGGGSAGRKP [Peptide 9019.0184]	6.18
GYVIGTQQATPGPAY [CEA.81 peptide 9019.0110]	1.71
GCQVVQGNLELTYLP [Her/neu.52]	1.97
AKGLQSLPTHDPSPL [Peptide 9019.0098]	4.46
LAALCRWGLLLALLP [Her/neu.3]	8
DNSIRPEELLQMELL [Cyclin D1.129]	6.65
FYTLHVIKSDLVNEE [CEA.119 peptide 9019.0114]	0.056
GPAYSGREIIYPNAS [CEA.92 peptide 9019.0111]	5.26
TVGIMIGVLVGVALI [CEA.688 peptide 9019.05]	4.45
RHLYQGCQVVQGNLE [Her/neu.47]	4.94
ERGPLEHLYSLHIPN [Peptide 9019.0190]	0.018
APTISPLNTSYRSGE [CEA.239 peptide 9919.0121]	10.6
MRKIVATWMLEVCEE [Cyclin D1.56]	0.249

Target: T6, HLA-DR DRB1*1101 (human)
T6 chain 1: not shown
T6 chain 2: not shown
Assay: radioligand inhibition, purified HLA-DR
Settings: remark: other sources report otherwise

Binder	IC50 [µM]
SDSVILNVLYGPDAP [CEA.123 peptide 9019.0119 (position 226)]	9.21
QYSWRINGIPQQHTQ [CEA.624 peptide 9019.0138]	0.151
AKGLQSLPTHDPSPL [Peptide 9019.0098]	6.81

Target: T7, HLA-DR DRB1*1302 (human)
T7 chain 1: not shown
T7 chain 2: not shown
Assay: radioligand inhibition, purified HLA-DR
Settings: remark: other sources report otherwise

Binder	IC50 [µM]
EGPLPAARPAGATLE [Peptide 9019.0101]	10.2
NPQLCYQDTILWKDI [Her2/neu.158]	5.07
VCGIQNSVSANRSDP [CEA.570 peptide 9012.0135]	0.921
SPGLSAGATVGIMIG [CEA.680 peptide 9019.0144]	0.08
SDSVILNVLYGPDAP [CEA.123 peptide 9019.0119 (position 226)]	0.083
DANLLNDRVLRAMLK [Cyclin D1.19 peptide 9019.0146]	0.286
AEVLFRCPPCTPERL [Peptide 9019.0178]	5.77
TTPVTGASPGGLREL [Her2/neu.126]	6.05
TMNMLGGGGSAGRKP [Peptide 9019.0184]	5.69
GYVIGTQQATPGPAY [CEA.81 peptide 9019.0110]	0.043
GVTVWELMTFGAKPY [Peptide 9019.0090]	8.86
SSYLSGANLNLSCHS [CEA.603 peptide 9012.0137]	0.037
AKGLQSLPTHDPSPL [Peptide 9019.0098]	3.99
LAALCRWGLLLALLP [Her/neu.3]	0.704
DNSIRPEELLQMELL [Cyclin D1.129]	0.939
GPAYSGREIIYPNAS [CEA.92 peptide 9019.0111]	0.154
TVGIMIGVLVGVALI [CEA.688 peptide 9019.05]	5.64
RHLYQGCQVVQGNLE [Her/neu.47]	5.04
ICELHCPALVTYNTD [Her2/neu.263]	3.22
APTISPLNTSYRSGE [CEA.239 peptide 9919.0121]	0.125
MRKIVATWMLEVCEE [Cyclin D1.56]	0.356

Target: T8, HLA-DR DRB4*0101 (human)
T8 chain 1: not shown
T8 chain 2: not shown
Assay: radioligand inhibition, purified HLA-DR
Settings: remark: other sources report otherwise

Binder	IC50 [µM]
SPGLSAGATVGIMIG [CEA.680 peptide 9019.0144]	2.59
SDSVILNVLYGPDAP [CEA.123 peptide 9019.0119 (position 226)]	0.612
INGIPQQHTQVLFIA [CEA.629 peptide 9019.0139]	2.7
QYSWRINGIPQQHTQ [CEA.624 peptide 9019.0138]	2.29
GARMPCAELVREPGC [Peptide 9019.0181]	4.7
GYVIGTQQATPGPAY [CEA.81 peptide 9019.0110]	0.063
SSYLSGANLNLSCHS [CEA.603 peptide 9012.0137]	0.042
AKGLQSLPTHDPSPL [Peptide 9019.0098]	0.572
DNSIRPEELLQMELL [Cyclin D1.129]	0.087
FYTLHVIKSDLVNEE [CEA.119 peptide 9019.0114]	0.022
TVGIMIGVLVGVALI [CEA.688 peptide 9019.05]	12.1
ICELHCPALVTYNTD [Her2/neu.263]	0.441
MRKIVATWMLEVCEE [Cyclin D1.56]	0.281

Target: T9, HLA-DR DRB5*0101 (human)
T9 chain 1: not shown
T9 chain 2: not shown
Assay: radioligand inhibition, purified HLA-DR
Settings: remark: other sources report otherwise

Binder	IC50 [µM]
VCGIQNSVSANRSDP [CEA.570 peptide 9012.0135]	0.036
TTPVTGASPGGLREL [Her2/neu.126]	3
GYVIGTQQATPGPAY [CEA.81 peptide 9019.0110]	10.2
SSYLSGANLNLSCHS [CEA.603 peptide 9012.0137]	14.1
FYTLHVIKSDLVNEE [CEA.119 peptide 9019.0114]	4.5
TVGIMIGVLVGVALI [CEA.688 peptide 9019.05]	0.384
ICELHCPALVTYNTD [Her2/neu.263]	2.81
ERGPLEHLYSLHIPN [Peptide 9019.0190]	4
MRKIVATWMLEVCEE [Cyclin D1.56]	17
